Laboratory results: patent US9340616B2, “Methods and compositions for heptameric targeting ligands” (The University of North Carolina at Chapel Hill, priority 2011, dated 2016)

B1: PSMA monomer: PSMA-binding peptide WQPDTAHHWATL on a truncated, nonfunctional Sm1 domain lacking the C-terminal 23 residues (protein)
chain: MWQPDTAHHWATLGPQPQPKPQPKPEPEPQPQGGMPPRPLDVLNRSLKSPVIVRLKGGREFRGTLDGYDIHMNLVLLDAEEIQNGEVVHHHHHH
B2: PSMA-Heptamer: AF-Sm1 heptamerization domain fused with the 12 amino-acid PSMA-binding peptide WQPDTAHHWATL, self-assembled heptamer (protein)
chain: MWQPDTAHHWATLGPQPQPKPQPKPEPEPQPQGGMPPRPLDVLNRSLKSPVIVRLKGGREFRGTLDGYDIHMNLVLLDAEEIQNGEVVRKVGSVVIRGDTVVFVSPAPGGEHHHHHH

Target: T1, PSMA (Homo sapiens, UniProt Q04609)
T1 construct: the extracellular domains of EGFR, HER2, and PSMA that are immobilized on the surface of CM5 biosensor chips; purchased R&D System, Minneapolis, Minn
Assay: BIAcore surface plasmon resonance on immobilized PSMA
Format: binding
Conditions: for binding to the PSMA receptor: PSMA monomer injected at 100 uM
Description: BIAcore 2000 (BIAcore AB, Uppsala, Sweden) was used for surface plasmon resonance (SPR) analysis. Purified extracellular domain of recombinant human EGFR ECD-Fc, HER2 ECD-Fc, and PSMA were diluted in 10 mM sodium acetate pH 5.0 and immobilized on a CM5 sensor chip (GE healthcare) by amine coupling according to the manufacturer's instruction (about 2,500 resonance unit). Various concentrations of monomeric and heptameric targeting ligands were injected onto the flow cell in an HBS-P buffer (10 mM HEPES pH7.4, 150 mM NaCl, and 0.005% surfactant P20) at a flow rate of 20 μl/min or 30 μl/min. The dissociation constants (Kd) were calculated using BIAevaluation software (BIAcore) by fitting data on one to one Langmuir binding model.
The BIAcore 2000 (BIAcore AB, Uppsala, Sweden) was used for surface plasmon resonance analysis. 1 μg of purified extracellular domain of recombinant human EGFR ECD-Fc, HER2 ECD-Fc, or PSMA (R&D System, Minneapolis, Minn.), was diluted in a buffer containing 10 mM sodium acetate pH 5.0 and immobilized on a CM5 sensor chip (GE healthcare, Piscataway, N.J.) by amine coupling according to the manufacturer's instruction (about 2,500 resonance units). Various concentrations of monomeric or heptameric ligands were injected onto the flow cell in an HBS-P buffer (10 mM HEPES pH 7.4, 150 mM NaCl, and 0.005% surfactant P20) at a flow rate of 20 μl/min. The dissociation equilibrium constant (KD), the association rate (Ka) and the dissociation rate (Kd) were calculated using the BIAevaluation software (BIAcore) by fitting the data on a one to one Langmuir binding model.

T1 sequence (Q04609 44-750 limits assumed): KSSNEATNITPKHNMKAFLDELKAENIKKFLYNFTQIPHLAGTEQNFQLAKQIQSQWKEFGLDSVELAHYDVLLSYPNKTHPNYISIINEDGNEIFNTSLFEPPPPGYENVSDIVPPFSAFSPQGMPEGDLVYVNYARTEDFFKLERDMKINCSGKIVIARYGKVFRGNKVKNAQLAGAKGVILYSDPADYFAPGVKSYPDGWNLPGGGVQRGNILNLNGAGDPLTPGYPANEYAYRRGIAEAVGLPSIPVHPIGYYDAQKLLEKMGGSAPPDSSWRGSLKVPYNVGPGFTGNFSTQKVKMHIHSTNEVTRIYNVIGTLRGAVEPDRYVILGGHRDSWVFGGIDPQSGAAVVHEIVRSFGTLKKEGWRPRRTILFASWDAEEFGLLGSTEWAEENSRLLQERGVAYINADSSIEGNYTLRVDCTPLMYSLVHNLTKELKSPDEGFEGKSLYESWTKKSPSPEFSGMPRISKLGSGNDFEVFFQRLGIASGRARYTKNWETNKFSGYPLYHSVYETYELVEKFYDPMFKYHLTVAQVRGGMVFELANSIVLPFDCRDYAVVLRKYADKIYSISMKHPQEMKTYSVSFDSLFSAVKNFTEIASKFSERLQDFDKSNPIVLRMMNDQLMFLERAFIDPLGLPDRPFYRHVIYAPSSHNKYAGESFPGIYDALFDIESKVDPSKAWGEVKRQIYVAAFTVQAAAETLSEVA

Row | Molecule | binding to the PSMA receptor | Kd (dissociation rate, one to one Langmuir model) [s⁻¹]
1 | B1 | did not bind | 
2 | B2 | bind marginally | 1.09e-06
